The text below walks through data of publication PMC9191654.

One may read the stoichiometry N as a count of units in the complex or per binding partner.

Test [1] addresses anti-OX40 antibody 1A7 with the Fc hexamer variant E345R/E430G/S440Y (RGY). In words: SEC. On the technique in general: SEC sorts molecules by how far they enter the pores of the column.
The target of test [2] is anti-OX40 antibody 1A7 with the κ3-11(49–61) light chain graft and the Fc hexamer variant E345R/E430G/S440Y (RGY). In words: SEC.

B1: anti-OX40 antibody 1A7 with the Fc hexamer variant E345R/E430G/S440Y (RGY) (antibody, V domains shown)
VH: EVQLVQSGAEVKKPGASVKVSCKASGYTFTDSYMSWVRQAPGQGLEWIGDMYPDNGDSSYNQKFRERVTITRDTSTSTAYLELSSLRSEDTAVYYCVLAPRWYFSVWGQGTLVTVSS
VL: DIQMTQSPSSLSASVGDRVTITCRASQDISNYLNWYQQKPGKAPKLLIYYTSRLRSGVPSRFSGSGSGTDFTLTISSLQPEDFATYYCQQGHTLPPTFGQGTKVEIK
With B1, the stoichiometry N in test [1] was determined as 6.

B2: anti-OX40 antibody 1A7 with the κ3-11(49–61) light chain graft and the Fc hexamer variant E345R/E430G/S440Y (RGY) (antibody, V domains shown)
VH: EVQLVQSGAEVKKPGASVKVSCKASGYTFTDSYMSWVRQAPGQGLEWIGDMYPDNGDSSYNQKFRERVTITRDTSTSTAYLELSSLRSEDTAVYYCVLAPRWYFSVWGQGTLVTVSS
VL: DIQMTQSPSSLSASVGDRVTITCRASQDISNYLNWYQQKPGKAPKLLIYDASNRATGIPARFSGSGSGTDFTLTISSLQPEDFATYYCQQGHTLPPTFGQGTKVEIK
B2 registered a stoichiometry N in test [2] of 6.
